# Test results taken from patent publication US9259479B2, “Treatment for comorbid diabetes with chronic kidney disease” (Eli Lilly and Company, priority 2012, dated 2016).
# Read-outs that look alike come from different tables or passages of the source.
# Settings: rat, in vivo
# Procedure: To induce diabetes, 10-week old male Harlan Sprague Dawley rats (Harlan, Indianapolis, Ind., USA) 250-280 g body weight, are dosed intravenously (IV) via tail vein with 45 mg/kg streptozotocin (STZ) in 0.5 M citric acid, pH 4.5, three days prior to study. […] Graphical and noncompartmental PK analyses are performed using SigmaPlot v11 (Systsat Software, Inc., San Jose, Calif.) and WinNonlin® Professional v5.3 (Pharsight®, St Louis, Mo., USA), respectively.
substance,measurement,setting,value
PEG20kDa-LysB29 human insulin,Tmax,"male, Harlan Sprague Dawley, sc",12 ± 0 h
same,CL/F,"male, Sprague Dawley, sc",1.13 ± 0.12 mL/min/kg
same,PK profile of the two molecules compared,,statistically similar
same,CL/F,sc,1.67 ± 0.33 mL/min/kg
same,Cmax,"sc, 93 nmol/kg",41.1 ± 6.3 nM
